Source: article PMC7768908 (2020)

Target: MT1-MMP cytoplasmic tail peptide (MMP-CTP) (Homo sapiens, Fe(II)-bound)
Assay: ITC

B1: acireductone dioxygenase (Fe-HsARD) (protein)
chain: MVQAWYMDDAPGDPRQPHRPDPGRPVGLEQLRRLGVLYWKLDADKYENDPELEKIRRERNYSWMDIITICKDKLPNYEEKIKMFYEEHLHLDDEIRYILDGSGYFDVRDKEDQWIRIFMEKGDMVTLPAGIYHRFTVDEKNYTKAMRLFVGEPVWTAYNRPADHFEARGQYVKFLAQTA
Kd: ~10 µM
